Legend:
[1] = tested on: Lung carcinoma, other carcinomas, soft tissue sarcoma, bone sarcoma; experiment: Immunohistological staining of other carcinomas and sarcomas (detection specificity to mesothelioma); parameters: species or system human
Description: (§1) AMeX-fixed cell precipitates or formalin-fixed tissues were paraffin-embedded to prepare thin sections. Each of the sections was fixed to a microscope slide, and subjected to deparaffinization and dehydration with xylene and ethanol, followed by activation of an antigen under different conditions. Each section was treated with 3% hydrogen peroxide for 5 minutes to deactivate endogenous peroxidase, and then washed with PBS and blocked with 0.5% casein for 10 minutes. After 100 μL of a solution containing a primary antibody was added to each section and treated at room temperature for 2 hours, the section was washed with PBS and allowed to develop color by using a Histofine Simple Stain MAX-PO (Multi) ([…] BIOSCIENCE INC.), Ventana ultraView DAB universal kit (Roche Diagnostics K. K.), or the EnVision+kits. Each section was stained with hematoxylin and then dehydrated, and encapsulated with Malinol (MUTO PURE CHEMICALS CO., LTD.) to observe under a microscope. The conditions for activation of an antigen were as follows: at 98° C. for 40 minutes for calretinin, mesothelin, and the SKM9-2 antigen; and at 95° C. for 64 minutes for cytokeratin 5/6 (CK5/6), podoplanin, and Wilms' tumor gene product 1 (WT-1). The following activation solutions were used: 10 mM Tris buffer (pH 9.0) containing 1 mM ethylenediamine tetraacetate (EDTA) for calretinin, CK5/6, and podoplanin; and 10 mM citrate buffer (pH 6.0) containing 0.1% TWEEN® 20 (polyethylene glycol sorbitan monolaurate, polyoxyethylenesorbitan monolaurate) for WT-1, mesothelin, and the SKM9-2 antigen. The following primary antibodies were used: a rabbit anti-calretinin polyclonal antibody (PAD:DC8) (Life Technologies Japan Ltd., Tokyo, Japan) for calretinin; a mouse anti-cytokeratin 5,6 monoclonal antibody (D5/16B4) ([…] BIOSCIENCE INC.) for CK5/6; a mouse anti-human mesothelin monoclonal antibody (5B2) (Leica Microsystems, Inc., Bannockburn, IL) for mesothelin; a mouse anti-podoplanin monoclonal antibody (D2-40) (Roche Diagnostics K. K.) for podoplanin; and a mouse anti-human WT-1 monoclonal antibody (6F-H2) (Roche Diagnostics K. K.) for WT-1.
Subsequently, the detection characteristics of the SKM9-2 antibody for other carcinomas were compared with those of other antibodies to confirm the detection specificity to mesothelioma. In this measurement, the detection specificity of each antibody was measured for several carcinomas: gastric carcinoma, colorectal carcinoma, breast carcinoma, ovarian carcinoma, renal cell carcinoma, and urothelial carcinoma, which are more likely to present problems in differential diagnosis of mesothelioma, as “Other carcinomas”; carcinosarcoma, liposarcoma, rhabdomyosarcoma, leiomyosarcoma, fibrosarcoma, synovial sarcoma, gastrointestinal stromal sarcoma (GIST), Ewing's sarcoma, alveolar soft part sarcoma (ASPS), solitary fibrous tumor, malignant peripheral nerve sheath tumor (MPNST), angiosarcoma, epithelioid hemangioendothelioma, epithelioid angiosarcoma, and biphasic synovial sarcoma as “Soft tissue sarcoma”; and chondrosarcoma and osteosarcoma as “Bone sarcoma”.

[2] = tested on: formalin-fixed tissue sections of cancers except mesothelioma; experiment: Hybridoma screening by immunostaining of formalin-fixed tissue sections; settings: hybridoma culture supernatant
[3] = tested on: healthy tissues without any apparent lesion; experiment: Immunohistological staining of normal tissues; parameters: species or system human
Description: as §1
In addition, the reactivity of the SKM9-2 antibody with normal tissues was examined by immunohistological staining. Immunostaining was performed by using the SKM9-2 antibody for healthy tissues without any apparent lesion.

mesothelioma = experiment: Immunohistological staining of mesothelioma tissue sections; parameters: species or system human
Description: For the detection of mesothelioma according to the present invention, the antibody according to the present invention or an antigen-binding fragment thereof is contacted with a sample. In the case that a sample separated from a living body such as cells, a tissue, or a tissue section is used, antibody reaction can be detected by using a method well known to those skilled in the art (e.g., an immunohistological staining method). If antibody reaction is then observed (e.g., in the case of a positive result), the subject from whom the sample is derived is likely to be affected with mesothelioma. Whether a result for antibody reaction is positive can be determined in accordance with an Allred Score method (see Allred D C et al., Mod Pathol, 11: 155-168, 1998). In the Allred Score method, for example, a total score is calculated from the following equation: Total score (TS)=Proportion score (PS)+Intensity score (IS) If the total score is 3 or more, then it can be determined that the result for reaction is positive. PS and IS can be determined from the following score tables. Score Tables for Allred Score Method Proportion Score, PS • 0: no staining • 1: a proportion of staining of less than 1% • 2: a proportion of staining of 1% or more and less than 10% • 3: a proportion of staining of 10% or more and less than ⅓ • 4: a proportion of staining of ⅓ or more and less than ⅔ • 5: a proportion of staining of ⅔ or more Intensity score, IS • 0: negative • 1: weak staining • 2: intermediate staining • 3: strong staining
as §1
Hereinafter, cases that the fraction of cells with scores of 1 or more determined in accordance with the Allred Score method was 10% or more in the cell were determined as positive.

[4] = tested on: HEG1 protein on the surface of ACC-MESO4 cells; experiment: Flow cytometry of ACC-MESO4 cells with antibody; type: cell-based, human; settings: FITC-labeled anti-mouse IgG, flow cytometer
Description: First, ACC-MESO4 was cultured, and cells adhering to the culture dish were peeled off with a scraper. The cells peeled off were reacted with the SKM9-2 antibody, and then treated with FITC-labeled anti-mouse IgG, and analyzed by using a flow cytometer. […] If the SKM9-2 antibody binds to the extracellular region of HEG1 protein, cells are to be FITC-labeled and thus fluorescence would be observed in flow cytometry.

B1: SKM9-2 antibody: mouse monoclonal IgG1 kappa antibody binding glycosylated HEG1; heavy chain SEQ ID NO: 2, light chain SEQ ID NO: 4 (antibody, listed as Mus musculus)
heavy: MGWSSIILFLVATTTGVHSQVQLQQPGAELVRPGASVKLSCKASGFSFTTYWITWVKQRPGQGLEWIGMIHPSDSETRLSQTFKDKATLTVDKSSNTAYMQFSSPTSEDSAVYYCVRDFDVWGAGTTVTVSSAKTTPPSVYPLAPGSAAQTNSMVTLGCLVKGYFPEPVTVTWNSGSLSSGVHTFPAVLQSDLYTLSSSVTVPSSTWPSETVTCNVAHPASSTKVDKKIVPRDCGCKPCICTVPEVSSVFIFPPKPKDVLTITLTPKVTCVVVDISKDDPEVQFSWFVDDVEVHTAQTQPREEQFNSTFRSVSELPIMHQDWLNGKEFKCRVNSAAFPAPIEKTISKTKGRPKAPQVYTIPPPKEQMAKDKVSLTCMITDFFPEDITVEWQWNGQPAENYKNTQPIMDTDGSYFVYSKLNVQKSNWEAGNTFTCSVLHEGLHNHHTEKSLSHSPGK
light: MKLPVRLLVLMFWIPASISDVLMTQTPLSLPVSLGDQASISCRSSQNIVHNNGNTYLGWYLQKPGQSPKLLIFKVSNRFSGVPDRFSGSGSGTDFTLKISRVEAEDLGVYYCFQGSHIPRTFGGGTRLEIKRADAAPTVSIFPPSSEQLTSGGASVVCFLNNFYPKDINVKWKIDGSERQNGVLNSWTDQDSKDSTYSMSSTLTLTKDEYERHNSYTCEATHKTSTSPIVKSFNRNEC
- Bone sarcoma (positive cases/cases) ([1]; chondrosarcoma and osteosarcoma): 0/20
- Positive cases, epithelioid hemangioendothelioma ([1]; epithelioid hemangioendothelioma): 1/6
- Other carcinomas (positive cases/cases) ([1]; gastric, colorectal, breast, ovarian, renal cell, urothelial carcinoma): 1/60
- Positive cases, leiomyosarcoma ([1]; leiomyosarcoma): 1/10
- Lung carcinoma (positive cases/cases) ([1]; lung carcinoma): 0/98
- Specificity (%) ([1]; mesothelioma specificity over all non-mesothelioma tumors): 99.0%
- Soft tissue sarcoma (positive cases/cases) ([1]; soft tissue sarcoma): 2/132
- Positive cases, urothelial carcinoma ([1]; urothelial carcinoma): 1/10
- Reactivity with formalin-fixed tissue sections of cancers except mesothelioma [2]: almost non-reactive
- Number of positive cases/number of samples ([3]; Bladder and ureter): 0/5
- Number of positive cases/number of samples ([3]; Blood vessel, *Some cells were positive): *5/8
- Number of positive cases/number of samples ([3]; Bronchus): 0/12
- Number of positive cases/number of samples ([3]; Cerebrum): 0/29
- Number of positive cases/number of samples ([3]; Duodenum): 0/2
- Number of positive cases/number of samples ([3]; Esophagus): 0/2
- Number of positive cases/number of samples ([3]; Gallbladder): 0/5
- Number of positive cases/number of samples ([3]; Kidney): 0/10
- Number of positive cases/number of samples ([3]; Large intestine): 0/6
- Number of positive cases/number of samples ([3]; Liver): 0/8
- Number of positive cases/number of samples ([3]; Lung): 0/23
- Number of positive cases/number of samples ([3]; Lymph node): 0/4
- Number of positive cases/number of samples ([3]; Mammary gland): 0/5
- Number of positive cases/number of samples ([3]; Muscle): 0/4
- Number of positive cases/number of samples ([3]; Myocardium): 0/12
- Number of positive cases/number of samples ([3]; Ovary): 0/4
- Number of positive cases/number of samples ([3]; Pancreas): 0/10
- Number of positive cases/number of samples ([3]; Pericardium): 1/1
- Number of positive cases/number of samples ([3]; Peritoneum): 0/2
- Number of positive cases/number of samples ([3]; Pleura): 0/5
- Number of positive cases/number of samples ([3]; Prostate): 0/10
- Number of positive cases/number of samples ([3]; Stomach): 0/3
- Number of positive cases/number of samples ([3]; Testicular serosa): 0/1
- Number of positive cases/number of samples ([3]; Testis): 1/5
- Number of positive cases/number of samples ([3]; Thyroid): 0/5
- Reactivity with normal tissue cells ([3]; normal mesothelial cells other than pericardial mesothelial cells): Negative
- Reactivity with normal tissue cells ([3]; pericardial mesothelial cells): positive image
- Reactivity with normal tissue cells ([3]; seminiferous tubule, one case for the testis): positive
- Reactivity with normal tissue cells ([3]; vascular endothelial cells): positive image
- Staining of well-differentiated papillary mesothelioma (WDPM) (mesothelioma; WDPM): one in one case
- Sensitivity (%) (mesothelioma; all mesothelioma types): 91.3%
- Detection of mesothelioma, Biphasic (positive cases/cases) (mesothelioma; biphasic mesothelioma): 12/13
- Detection of mesothelioma, Desmoplastic (positive cases/cases) (mesothelioma; desmoplastic mesothelioma): 3/4
- Staining of mesothelioma, representative images (mesothelioma; epithelial mesothelioma and sarcomatoid mesothelioma): successfully stained
- Detection of mesothelioma, Epithelial (positive cases/cases) (mesothelioma; epithelial mesothelioma, positive = fraction of cells with Allred score 1 or more is 10% or more): 62/66
- Detection of mesothelioma, Sarcomatoid (positive cases/cases) (mesothelioma; sarcomatoid mesothelioma): 7/9
- Binding to cell surface of ACC-MESO4 [4]: bind to a HEG1 protein part exposed on the surface of the cell membrane

From patent US12123876B2, “Antibody binding to HEG1 and use of the antibody for detection and treatment of mesothelioma” (Kanagawa Prefectural Hospital Organization, priority 2016, dated 2024)
